The assay deals with T1, HLA-A2 on T2 cells (Homo sapiens, UniProt P04439, D140Y/D185E/D98H/E176V/E277Q/G131W/G231S/I119V/I121R/I166T/I218V/L300P/L318F/N151K/N90K/P208A/P217A/Q86G/Q94H/R138H/R169H/T345S).
T1 construct: T2 cell line expressing the HLA-A2 molecules was obtained from Dr Peter Creswell; endogenous in cells; host or cells: T2 cell line (TAP-deficient human cell line)
The assay is described as follows: in vitro HLA-A2 stabilization (peptide-induced MHC class 1 assembly assay, FACS) on T2 cells. It counts as cell-based. To be noted: FIG. 1; for binding to and stabilization of membrane-bound HLA-A2 (shift of fluorescent peak): BB7.2 antibody, FACS. The method, then: Location of the potential CTL containing motifs of the HIV-1 (LAI) Rev protein has been predicted by the reported peptide-binding motif algorithms. […] The ability of the peptides containing these motifs to bind and stabilize membrane-bound HLA-A2 molecule was assessed using the T2 cell line. The cell line has been well documented to have defective TAP transporter function resulting in the majority of the intracellularly generated peptides being unable to be transported into the endoplasmic reticulum to associate with the newly synthesized HLA class 1 molecules, i.e. HLA-A2 (see references 4, 5). […] Upon interaction with suitable peptides introduced exogenously, the stability of the HLA-A2 molecules can be restored.
T2 cell line expressing the HLA-A2 molecules was obtained from Dr Peter Creswell at the Howard Hughes Research Institute of Yale University. The cells were propagated in Iscove's complete medium (Iscove's medium supplemented with 10% heat-inactivated bovine serum, 120.0 units per ml of penicilin G sodium, 120 μg per ml of streptomycin sulphate, and 0.35 mg per ml of L-glutamine). The ability of individual 8 to 13 mer peptides, prepared as described in Example 1 and identified in Table 1, to bind and modulate the stability of the A2 molecules on T2 cells was determined using a peptide-induced MHC class 1 assembly assay, which was modified from a protocol described by Yuping Deng et al. (ref. 6).
In essence, 1×10^6 T2 cells were incubated with a specified concentration of the test peptide in 250.0 μl of Iscove's serum-free medium (Iscove's medium supplemented with 120.0 units per ml of penicillin G sodium, 120.0 μg per ml of streptomycin sulphate and 0.35 mg per ml of L-glutamine) in a sterile Eppendorf tube at 37° C. overnight. The cells were then incubated on ice for 30 min before 1.0 ml of Iscove's complete medium supplemented with 5.0 μg per ml of brefeldin A, 12.5 μg per ml of anisomycin and 5.0 μg per ml of cyclohexamide was added. The samples were then incubated for 3.0 hr in a 37° C. CO2 incubator.
In the presence of the drugs, further protein synthesis and intracellular delivery of HLA-A2 molecules to the cell surface are inhibited, and de-stabilization of the conformation of the membrane-bound class 1 molecules at the physiological temperature occurs.
The cells were then washed twice with ice-cold PBA (a buffer containing 0.9% sodium chloride, 0.5% bovine serum albumin and 0.02% sodium azide). 100.0 μl of PBA containing 5.0 μg of a conformation-sensitive HLA-A2-specific mouse monoclonal antibody, BB7.2 (ref. 7), was then added to each test sample. The reaction was allowed to take place on ice for 45 min. The cells were then washed three times with ice-cold PBA.
The binding of BB7.2 was then detected by adding […] containing 1.0 μg of goat anti-mouse IgG F(ab′) fluorescein (FITC) conjugate to each cell sample. After 30 min incubation on ice, the cells were washed twice with PBA, and twice again with PBS, pH 7.2. Cells were fixed immediately after washing was completed by adding 100.0 μl of 1.0% paraformaldehyde to the cell pellet. The cells were gently resuspended and were FACS analysed usually within three days after the experiments were completed.
The fluorescence index, which is an indicator for increased density of membrane-bound A2 molecules, was calculated by dividing the mean fluorescence of an experimental sample (peptide treated T2 cells) by the mean fluorescence of the control sample (T2 cells not treated with peptide).

The values that follow come from patent publication US7105164B1, “HIV-specific cytotoxic T-cell responses” (priority 1999, dated 2006).

“Also recorded” adds a separate entry of the source.

For “ILVESPAVL (Human immunodeficiency virus type 1) [CLP-72]”, the “binding to and stabilization of membrane-bound HLA-A2 (shift of fluorescent peak)” value was “bound to HLA-A2 on T2 cells; also recorded: able to bind and stabilize; also recorded: capable of binding to HLA-A2 on T2 cells”; the “order of potency by comparison of fluorescence indices” value (shortened to “order of potency”) is on record as “CLP-177>CLP-72>CLP-178>CLP-182”.
On to PLQLPPLERLIL [CLP-182], for which the “binding to and stabilization of membrane-bound HLA-A2 (shift of fluorescent peak)” value is “bound to HLA-A2 on T2 cells; also recorded: able to bind and stabilize; also recorded: capable of binding to HLA-A2 on T2 cells”; the “order of potency” value is given as “CLP-177>CLP-72>CLP-178>CLP-182”.
As to “YLGRSAEPV (Human immunodeficiency virus type 1) [CLP-177]”, the “binding to and stabilization of membrane-bound HLA-A2 (shift of fluorescent peak)” value is “bound to HLA-A2 on T2 cells; also recorded: able to bind and stabilize; also recorded: capable of binding to HLA-A2 on T2 cells”; the “order of potency” value is reported as “CLP-177>CLP-72>CLP-178>CLP-182”.
In the case of “YLGRSAEPVPL (Human immunodeficiency virus type 1) [CLP-178]”, the “binding to and stabilization of membrane-bound HLA-A2 (shift of fluorescent peak)” value was “bound to HLA-A2 on T2 cells; also recorded: able to bind and stabilize; also recorded: capable of binding to HLA-A2 on T2 cells”; the “order of potency” value is recorded as “CLP-177>CLP-72>CLP-178>CLP-182”.
